In patent US20110118172A1:

Target: metastin receptor (OT7T175) stably expressed on CHO cells
Experiment: cell-based or functional assay

Specific Activity: EC50 of the test compound based on EC50 of Metastin (45-54); agonist activity by change in intracellular calcium ion level (Fluo-4 NW, FLIPR) in receptor-expressing CHO cells	Substance
2.2	Compound No. 972: dimethylaminoethylureido-D-Tyr-Hyp-Asn-Thr-Phe-AzaGly-Leu-Arg(Me)-Trp-NH2 (peptide)
0.4	Compound No. 973: iso-butylureido-D-Tyr-Hyp-Asn-Thr-Phe-AzaGly-Leu-Arg(Me)-Trp-NH2 (peptide)
